According to patent US9446124B2, “Targeting of bone marrow neovasculature” (Philogen S.P.A., priority 2009, dated 2016):
Entries after “also recorded” stand apart in the source; their conditions may differ.

B1: 4A1-F16-SIP: human monoclonal mini-immunoglobulin specific to the A1 domain of tenascin-C; sequence SEQ ID NO:25 (protein)
chain: EVQLLESGGGLVQPGGSLRLSCAASGFTFSRYGMSWVRQAPGKGLEWVSAISGSGGSTYYADSVKGRFTISRDNSKNTLYLQMNSLRAEDTAVYYCAKAHNAFDYWGQGTLVTVSRGGGSGGGSGGSSELTQDPAVSVALGQTVRITCQGDSLRSYYASWYQQKPGQAPVLVIYGKNNRPSGIPDRFSGSSSGNTASLTITGAQAEDEADYYCNSSVYTMPPVVFGGGTKLTVLSGGSGGPRAAPEVYAFATPEWPGSRDKRTLACLIQNFMPEDISVQWLHNEVQLPDARHSTTQPRKTKGSGFFVFSRLEVTRAEWEQKDEFICRAVHEAASPSQTVQRAVSVNPESSRRGGC
modifications: Synthetic sequence 4A1-F16-SIP amino acid sequence
B2: F8-SIP (V5L/K18R): human monoclonal mini-immunoglobulin specific to the alternatively spliced EDA domain of fibronectin; sequence SEQ ID NO:26 (protein)
chain: EVQLLESGGGLVQPGGSLRLSCAASGFTFSLFTMSWVRQAPGKGLEWVSAISGSGGSTYYADSVKGRFTISRDNSKNTLYLQMNSLRAEDTAVYYCAKSTHLYLFDYWGQGTLVTVSSGGGGSGGGSGGGGGEIVLTQSPGTLSLSPGERATLSCRASQSVSMPFLAWYQQKPGQAPRLLIYGASSRATGIPDRFSGSGSGTDFTLTISRLEPEDFAVYYCQQMRGRPPTFGQGTKVEIKSGGSGGPRAAPEVYAFATPEWPGSRDKRTLACLIQNFMPEDISVQWLHNEVQLPDARHSTTQPRKTKGSGFFVFSRLEVTRAEWEQKDEFICRAVHEAASPSQTVQRAVSVNPESSRRGGC
modifications: Synthetic sequence F8-SIP (V5L/K18R) amino acid sequence

Columns and labels:
[1] = system: target tumour cells and endothelial cells; details: acts on microtubuli; literature references; cited from earlier work
[2] = system: blood vessels present in the bone marrow biopsies of patients with extramedullary AML; experiment: Immunohistochemistry of bone marrow biopsies from patients with extramedullary AML; assay type: binding, human; details: biotinylated antibody in SIP format, 2 μg/ml; two patients; FIG. 3
Procedure: (§1) Immunohistochemistry and immunofluorescence analysis were performed on freshly frozen bone marrow biopsies of patients with acute myeloid leukaemia.
(§2) For immunohistochemistry, biotinylated antibodies were used in small immunoprotein format (SIP) under identical conditions (2 μg/ml). Aliquots were prepared from a single batch of antibodies, frozen and used only once to ensure reproducibility of immunohistochemical stainings. Frozen tissue samples were stored at −80° C. Sections of 10 μm thickness were fixed in chilled acetone, rehydrated in TBS buffer (50 mM Tris, 100 mM NaCl, 0.001% Aprotinin, pH 7.4) and blocked with 20% fetal calf serum in TBS. The antibodies were added onto the sections in a final concentration of 2 μg/mL in 3% bovine serum albumin (BSA)/TBS solution and incubated for one hour. After washing in TBS, bound antibodies were detected with streptavidin-biotinylated alkaline phosphatase complex (Biospa, Milan, Italy) in TBS 3% BSA+2 mM MgCl2. The Fast Red substrate (Sigma) was used for detection of phosphatase activity. Sections were counterstained with Gill's hematoxylin No. 2 (Sigma) and mounted with Glycergel mounting medium (Dako, Glostrup, Denmark).

[3] = system: vessels of HL-60 tumour (granulocytic sarcoma) sections; experiment: Immunohistochemistry of HL-60 tumours from human leukaemia mouse model; assay type: binding; details: biotinylated SIP, 2 μg/ml, HL-60 xenograft in nude mice, FIG. 4A
Procedure: as §2
(§3) The mouse model for human leukaemia used here was previously described in Potter et al. (1984). Specifically, nude mice were xenografted with cells from the HL-60 leukaemia cell line and, after development of HL-60 tumours (granulocytic sarcomas), samples were obtained both from said tumours and from the bone marrow of the mice.
Immunohistochemistry studies were then performed as described under “immunohistochemistry” above.

[4] = system: blood vessels in the bone marrow of AML patients; experiment: Immunohistochemistry of bone marrow biopsies from AML patients; assay type: binding, human; details: biotinylated antibody in SIP format, 2 μg/ml, frozen 10 μm sections; FIG. 2
Procedure: as §1, §2

healthy bone marrow = experiment: Immunohistochemistry of healthy bone marrow from HL-60 xenografted mice; assay type: binding, nude mice; details: biotinylated SIP, 2 μg/ml; bone marrow of the same HL-60 xenografted mice; FIG. 4B
Procedure: as §2
as §3, with “mice. […]” for “mice.”

[5] = system: areas of bone marrow from AML patients with high blast densities; experiment: Multicolour immunofluorescence of AML bone marrow (co-localization with vWF); assay type: binding, human; details: biotinylated SIP, 2 μg/mL
Procedure: Biotinylated antibodies were used in small immunoprotein format (SIP) under identical conditions (2 μg/ml). Aliquots were prepared from a single batch of antibodies, frozen and used only once to ensure reproducibility of immunohistochemical stainings.
Sections of 10 μm thickness were fixed in chilled acetone and blocked with 20% fetal calf serum in PBS. Biotinylated F8-SIP (V5L/K18R) and 4A1-F16-SIP were added onto the sections in a final concentration of 2 μg/mL in 3% bovine serum albumin (BSA)/PBS solution and incubated for one hour. Mouse anti-human vWF (von Willebrandt factor) was used to outline endothelial cells. After washing in PBS, bound primary antibodies were detected with Streptavidin-Alexa Fluor 488 and anti-mouse IgG Alexa Fluor 594 (Invitrogen) were used as secondary antibodies. Nuclei were counterstained with DAPI and images were captured on an Axioskop 2 Mot plus microscope equipped with an AxioCam MRc camera (Zeiss). Human

Molecule | concentration range capable of killing target tumour cells and endothelial cells [1] | staining of blood vessels in bone marrow biopsies of extramedullary AML patients [2] | staining of vessels in HL-60 tumour sections [3] | staining of vessels in HL-60 tumour sections ([3]; listed as 4A1-F16 SIP) | staining of blood vessels in bone marrow biopsies of AML patients [4] | staining of healthy bone marrow sections (healthy bone marrow) | co-localization with antibodies specific for von Willebrand Factor (vWF) [5]
CC[C@]1(O)C[C@H]2CN(CCc3c([nH]c4ccccc34)[C@@](C(=O)OC)(c3cc4c(cc3OC)N(C)[C@H]3[C@@](O)(C(=O)NN)[C@H](O)[C@]5(CC)C=CCN6CC[C@]43[C@@H]65)C2)C1 [4-desacetyl-3-vinblastine monohydrazide] | picomolar concentration range | – | – | – | – | – | –
cemadotin | picomolar concentration range | – | – | – | – | – | –
B1 | – | strongly stained the blood vessels present in the bone marrow biopsies in both cases | strongly stained the vessels of the HL-60 tumour sections | strongly stained the vessels present in the HL-60 tumour (granulocytic sarcoma) sections | strongly stained the blood vessels present in the bone marrow biopsy; also recorded: capable of staining the vast majority of blood vessels | no staining was visible | excellent co-localization
B2 | – | also visible and was either similar or slightly weaker than the level of staining observed with 4A1-F16-SIP | strongly stained the vessels of the HL-60 tumour sections; also recorded: strongly stained the vessels present in the HL-60 tumour (granulocytic sarcoma) sections | – | also visible, although the level of staining was weaker than that observed with 4A1-F16-SIP; also recorded: stained a large proportion of these blood vessels but fewer than observed with the 4A1-F16-SIP antibody | no staining was visible | –
